Our source for the stoichiometry N values is paper PMC4961411.

In experiment [1] the target is 6xHis-YlfB 131–405 (Legionella pneumophila). Put plainly: SDS-PAGE and immunoblot of gel filtration peak fractions, not boiled.
Experiment [2] has the same target. Put plainly: SDS-PAGE and immunoblot of gel filtration peak fractions, boiled.
Experiment [3] concerns the target 6xHis-YlfA 128–425 (Legionella pneumophila). Put plainly: SDS-PAGE and immunoblot of gel filtration peak fractions, not boiled.
For experiment [4] the target is unchanged. Kind of experiment: SDS-PAGE and immunoblot of gel filtration peak fractions, boiled.

Several values for one entry are separate records, joined by “and”; a condition that tells them apart may be missing. Equal entries are not always repeated.

As to 6xHis-YlfB 131–405 (domain or fragment), the stoichiometry N was 2 and 3 in experiment [1]; 2 in experiment [2].
On to 6xHis-YlfA 128–425 (domain or fragment), for which the stoichiometry N in experiment [3] is 2 and 3; in experiment [4], 2.
